Results on four molecules are retold here after patent US11673947B2, “Target tissue-specific antigen-binding molecule” (Chugai Seiyaku Kabushiki Kaisha, priority 2012, dated 2023).

Experiment [1] in a line: Competitive phage ELISA, inhibition of binding to biotin-labeled antigens by ATP. The conditions noted are these: ATP from an equal amount up to 10000 times that of the antigen. The procedure:
ATNLSA1-4_D12 and PF1 were each diluted with TBS and subjected to ELISA by the following procedure.
A StreptaWell 96 microtiter plate (Roche) was coated at room temperature for one hour with 100 μl of TBS containing biotin-labeled antigens (a mixture of 5′-adenosine-PEG-biotin and ATP-PEG-biotin). After the antigens were removed by washing each well of the plate with TBST, the wells were blocked with 250 μl of 2% skim milk/TBS for one hour or more. 2% skim milk/TBS was removed, and then the prepared, purified phages were added to each well. The plate was allowed to stand at room temperature for one hour to allow binding of the antibody-displaying phages to the antigens in each well. […] For the competition of the immobilized antigen with ATP, the plate was allowed to stand at room temperature for one hour. Then, after TBST wash, an HRP-conjugated anti-M13 antibody (Amersham Pharmacia Biotech) diluted with TBS was added to each well. The plate was incubated for one hour. Following TBST wash, the TMB single solution (ZYMED) was added to each well. The chromogenic reaction in the solution of each well was terminated by adding sulfuric acid. Then, the developed color was assessed by measuring absorbance at 450 nm.

The target in experiment [2] is T1, hIL-6R (Homo sapiens, UniProt P08887).
T1 sequence (P08887 20-355 limits assumed): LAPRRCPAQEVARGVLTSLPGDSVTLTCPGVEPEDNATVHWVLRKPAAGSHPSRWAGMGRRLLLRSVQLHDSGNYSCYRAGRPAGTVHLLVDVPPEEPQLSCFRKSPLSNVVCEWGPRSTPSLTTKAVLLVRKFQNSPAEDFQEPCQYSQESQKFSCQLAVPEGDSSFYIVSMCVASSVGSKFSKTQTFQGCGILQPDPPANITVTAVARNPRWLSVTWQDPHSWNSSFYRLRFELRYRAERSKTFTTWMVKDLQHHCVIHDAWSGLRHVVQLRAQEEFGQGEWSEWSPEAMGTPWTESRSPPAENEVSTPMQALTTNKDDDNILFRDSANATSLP
The experiment can be described thus: Phage ELISA, binding to hIL-6R in the presence or absence of SC. The conditions noted are these: in the presence of SC. The procedure:
Culture supernatants containing phages were collected according to a conventional method (Methods Mol. Biol. (2002) 178, 133-145) from single colonies of E. coli obtained as described in (14-2). Phages purified by the method described in (2-4) were subjected to ELISA by the following procedure. A StreptaWell 96 microtiter plate (Roche) was coated overnight with 100 μl of TBS containing biotin-labeled hIL-6R. After biotin-labeled hIL-6R was removed by washing each well of the plate with TBST, the wells were blocked with 250 μl of 2% skim milk/TBS for one hour or more. 2% skim milk/TBS was removed, and then the prepared, purified phages were added to each well. The plate was allowed to stand at room temperature for one hour to allow binding of antibody-displaying phages to biotin-labeled hIL-6R in each well in the presence or absence of SC. After washing with TBST or SC/TBST, an HRP-conjugated anti-M13 antibody (Amersham Pharmacia Biotech) diluted with TBS or SC/TBS was added to each well. The plate was incubated for one hour. Following wash with TBST or SC/TBST, the TMB single solution (ZYMED) was added to each well. The chromogenic reaction in the solution of each well was terminated by adding sulfuric acid. Then, the developed color was assessed by measuring absorbance at 450 nm.
For orientation: ELISA stands for enzyme-linked immunosorbent assay.

The target of experiment [3] is T1, hIL-6R. The experiment can be described thus: IgG ELISA, binding to hIL-6R in the presence or absence of each small molecule, amino acid or amino acid metabolite. The procedure:
Three types of antibodies obtained: 6RNMSC1-2_F02 and 6RNMSC1-3_G02, and GC413 were subjected to ELISA under the nine conditions described in Table 3. Meanwhile, each small molecule was appropriately prepared at the concentrations shown in Table 3 using the buffers indicated in Table 19. The antigen used was biotin-labeled hIL-6R.
First, a StreptaWell 96 microtiter plate (Roche) was coated at room temperature for one hour or more with 100 μl of PBS containing biotin-labeled hIL-6R. After washing with Wash buffer to remove unbound biotin-labeled hIL-6R from the plate, each well was blocked for one hour or more with 250 μl of Blocking Buffer. After Blocking Buffer was removed from each well, the purified IgGs were prepared to 2.5 μg/ml in Sample Buffer containing small molecules at the final concentrations shown in Table 3, and each was aliquoted at 100 μl into the plate. The plate was allowed to stand at room temperature for one hour to allow binding of each IgG to biotin-labeled hIL-6R in each well. After washing with Wash Buffer containing small molecules at the final concentrations shown in Table 3, an HRP-conjugated anti-human IgG antibody (BIOSOURCE) diluted with Sample Buffer containing the same small molecules was added to each well. The plate was incubated for one hour. Following wash with Wash Buffer containing each small molecule, the TMB single solution (ZYMED) was added to each well. The chromogenic reaction in the solution of each well was terminated by adding sulfuric acid. Then, the developed color was assessed by measuring absorbance at 450 nm.
6RNMSC1-2_F02 described in Example 14, which has antigen-binding activity in the presence of kynurenine, and negative control GC413 were subjected to ELISA under the seven conditions described in Table 18. Meanwhile, each small molecule was appropriately prepared at the concentrations shown in Table 18 using the buffers indicated in Table 4. The antigen used was biotin-labeled hIL-6R. ELISA was carried out using the method described in Example 11.

For a further experiment, the target named is T2, human IL6 receptor (Homo sapiens, UniProt P08887).
T2 sequence (P08887 20-357 limits assumed): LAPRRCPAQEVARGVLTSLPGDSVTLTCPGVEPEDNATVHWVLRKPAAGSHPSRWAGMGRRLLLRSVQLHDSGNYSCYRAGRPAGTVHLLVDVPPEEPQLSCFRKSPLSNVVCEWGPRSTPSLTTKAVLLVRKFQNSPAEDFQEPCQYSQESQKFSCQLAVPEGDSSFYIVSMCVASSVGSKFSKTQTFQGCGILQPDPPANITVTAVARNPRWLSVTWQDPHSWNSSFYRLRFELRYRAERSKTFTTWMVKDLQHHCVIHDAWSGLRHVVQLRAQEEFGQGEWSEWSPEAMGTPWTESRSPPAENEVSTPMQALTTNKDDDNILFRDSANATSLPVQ
The experiment can be described thus: Phage ELISA, binding to human IL6 receptor in the presence or absence of adenosine and/or ATP. The conditions noted are these: with or without 10 mM adenosine and ATP. The procedure:
Phage-containing culture supernatants were collected according to a conventional method (Methods Mol. Biol. (2002) 178, 133-145) from single colonies of E. coli obtained by the method described above. The collected culture supernatants were treated by ultrafiltration using NucleoFast 96 (MACHERY-NAGEL). 100 μl of the culture supernatants were added to each well of NucleoFast 96, and it was centrifuged (4500 g for 45 minutes) to remove flow through. After addition of 100 μl of H2O, the NucleoFast 96 was washed by centrifugation (4500 g for 30 minutes). Finally, 100 μl of TBS was added, and the NucleoFast 96 was allowed to stand for five minutes at room temperature. A phage suspension was collected from the supernatant in each well of the NucleoFast 96.
The purified phages, to which TBS or (adenosine+ATP)/TBS was added, were subjected to ELISA by the following procedure. A StreptaWell 96 microtiter plate (Roche) was coated overnight with 100 μl of TBS containing biotin-labeled antigen. […] Then, the developed color was assessed by measuring absorbance at 450 nm. […]
First, a StreptaWell 96 microtiter plate (Roche) was coated at room temperature for one hour or more with 100 μl of TBS containing a biotin-labeled antigen. […] Then, the developed color was assessed by measuring absorbance at 450 nm (FIGS. 25, 26, and 27). […]

B1: PF1: IL-6R-binding clone prepared as a negative control; SEQ ID NOs: 48 and 49 (antibody, V domains shown)
VH: QVQLQESGPGLVKPSETLSLTCAVSGYSISDDHAWSWVRQPPGEGLEWIGYISYSGITNYNPSLKGRVTISRDTSKNQFSLKLSSVTAADTAAYYCARVLARITAMDYWGEGTLVTVSS
VL: DIQMTQSPSSLSASVGDSVTITCQASQDISSYLNWYQQKPGKAPELLIYYGSELHSGVPSRFSGSGSGTDFTFTISSLEAEDAATYYCGQGNRLPYTFGQGTKVEIE
As for B1, the “antigen binding (negative control)” value in experiment [1] is given as “not detected regardless of the ATP concentration”.

B2: 6RNMSC1-3_G02: antibody that binds to hIL-6R in the presence of ATP; SEQ ID NOs: 88 and 89 (antibody, listed as Homo sapiens, V domains shown)
VH: EVQLVQSGGDLVKPGGSLRLSCAASGFTFSNYAMHWVRQAPGKGLEWVAVVSYDGSNKYYADSVKGRFTISRDNSKNTLYLQMNSLRAEDTAVYYCARLVPSSGYPGRFDPWGQGTLVTVSS
VL: NIQMTQSPSSLSASVGDRVTITCRASQSISSSLNWYQQIPGKAPKLLIYAASSLQSGVPSRFSGSGSGTDFTLTISSLQPEDFASYYCQQSYSAWTFGQGTKVEIK
Turning to B2, in the experiment with hIL-6R [2], the “binding activity to hIL-6R in the presence of a small molecule cocktail (phage ELISA)” value is given as “have binding activity”. Moreover, the “absorbance under condition 1 compared to condition 8” value with hIL-6R [3] (condition 1 (1 mM ATP-Na)) is reported as “the same”. Also, in the experiment with hIL-6R [3] (condition 9 (in the absence of small molecules) vs condition 8 (complete small molecule cocktail solution)), the “absorbance under condition 9 as compared to condition 8” value is listed as “markedly lower”. For the same molecule, the “absorbance under other conditions” value in the experiment with hIL-6R [3] (remaining conditions of Table 3) was “markedly lower”.

B3: 6RRLSA1-6_037: clone with antigen-binding activity to human IL-6 receptor in the absence of ATP and adenosine (antibody, V domains shown)
VH: EVQLVESGGDLVKPGGGLRLSCAASGFTFSTYTMHWVRQAPGKGLEWVSSISSRSGHRHYADSVKGRFTISRDNAKNSLYLQMNSLRAEDTAVYYCARYGKKGNRNWVFDYWGQGTLVTVSS
VL: QSALTQPPSASGSPGQTVTISCTGTSTDVGGYNYVSWYQQHPGKAPKLMIYSTSKRPSGVPDRFSGSKSGNTASLTVSGLQAEDEADYFCSTTTYAKNPVFGGGTKLTVL
As to B3, in the experiment with human IL6 receptor, the “antigen-binding activity to human IL-6 receptor in the absence of ATP and adenosine” value is recorded as “had an antigen-binding activity”.

B4: 6RRLSA1-6_045: clone with antigen-binding activity to human IL-6 receptor in the absence of ATP and adenosine (antibody, V domains shown)
VH: EVQLVESGGDLVKPGGGLRLSCAASGFTFSGYTMHWVRQAPGKGLEWVSSISSRSNHRSYADSVKGRFTISRDNAKNSLYLQMNSLRAEDTAVYYCARFGKRFDRNWVFDYWGQGTLVTVSS
VL: QSALTQPPSASGSPGQTVTISCTGTSTDVGTYNYVSWYQQHPGKAPKLMIYKTSKRPSGVPDRFSGSKSGNTASLTVSGLQAEDEADYFCSSRRYRRSLSFGGGTKLTVL
For the molecule B4, the “antigen-binding activity to human IL-6 receptor in the absence of ATP and adenosine” value with human IL6 receptor is listed as “had an antigen-binding activity”.
